Source: patent US20260167699A1 (Chugai, published 2026)

T1: FcγRIIa(R) extracellular domain with C-terminal His tag (human, UniProt P12318 34-217)
T1 construct: extracellular domain; R131 allotype; also called 2aR; CD32
T1 sequence: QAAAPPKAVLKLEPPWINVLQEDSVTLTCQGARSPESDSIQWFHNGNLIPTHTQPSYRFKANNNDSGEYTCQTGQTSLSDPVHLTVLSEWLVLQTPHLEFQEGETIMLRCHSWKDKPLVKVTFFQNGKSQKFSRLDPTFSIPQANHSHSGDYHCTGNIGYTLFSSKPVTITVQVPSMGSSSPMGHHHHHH

T2: FcγRIIa(H) extracellular domain with C-terminal His tag (human, UniProt P12318 34-217)
T2 construct: extracellular domain; H131 allotype; also called 2aH; CD32
T2 sequence: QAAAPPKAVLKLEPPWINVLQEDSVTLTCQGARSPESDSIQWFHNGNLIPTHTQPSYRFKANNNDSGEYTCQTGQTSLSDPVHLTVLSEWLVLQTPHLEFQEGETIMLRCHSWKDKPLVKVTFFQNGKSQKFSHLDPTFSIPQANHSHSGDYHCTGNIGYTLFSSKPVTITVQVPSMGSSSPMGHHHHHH

T3: FcγRIIb extracellular domain with C-terminal His tag (human, UniProt P31994 43-217)
T3 construct: extracellular domain; also called 2b; CD32
T3 sequence: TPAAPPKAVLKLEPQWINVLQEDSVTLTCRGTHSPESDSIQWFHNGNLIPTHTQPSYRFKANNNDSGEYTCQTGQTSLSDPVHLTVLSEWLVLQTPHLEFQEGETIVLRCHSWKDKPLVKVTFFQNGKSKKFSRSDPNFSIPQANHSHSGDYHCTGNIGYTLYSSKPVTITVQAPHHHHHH

B1: GpH7-A5/GpH7-B3 variant E333_20W/GpL16-k0 (antibody, human IgG1, kappa)
heavy 1: not shown
heavy 2: not shown
light: DIVMTQSPLSLPVTPGEPASISCQASESLVHSNRNTYLHWYLQKPGQSPQLLIYKVSNRFSGVPDRFSGSGSGTDFTLKISRVEAEDVGVYYCSQNTHVPPTFGQGTKVEIERTVAAPSVFIFPPSDEQLKSGTASVVCLLNNFYPREAKVQWKVDNALQSGNSQESVTEQDSKDSTYSLSSTLTLSKADYEKHKVYACEVTHQGLSSPVTKSFNRGEC
notes: heterodimerized IgG1 (He Ab), mutation in one H chain only; also called He Ab
B2: GpH7-A5/GpH7-B3 variant I332_08L/GpL16-k0 (antibody, human IgG1, kappa)
heavy 1: not shown
heavy 2: not shown
light: DIVMTQSPLSLPVTPGEPASISCQASESLVHSNRNTYLHWYLQKPGQSPQLLIYKVSNRFSGVPDRFSGSGSGTDFTLKISRVEAEDVGVYYCSQNTHVPPTFGQGTKVEIERTVAAPSVFIFPPSDEQLKSGTASVVCLLNNFYPREAKVQWKVDNALQSGNSQESVTEQDSKDSTYSLSSTLTLSKADYEKHKVYACEVTHQGLSSPVTKSFNRGEC
notes: as for B1
B3: GpH7-A5/GpH7-B3 variant I332_05P/GpL16-k0 (antibody, human IgG1, kappa)
heavy 1: not shown
heavy 2: not shown
light: DIVMTQSPLSLPVTPGEPASISCQASESLVHSNRNTYLHWYLQKPGQSPQLLIYKVSNRFSGVPDRFSGSGSGTDFTLKISRVEAEDVGVYYCSQNTHVPPTFGQGTKVEIERTVAAPSVFIFPPSDEQLKSGTASVVCLLNNFYPREAKVQWKVDNALQSGNSQESVTEQDSKDSTYSLSSTLTLSKADYEKHKVYACEVTHQGLSSPVTKSFNRGEC
notes: as for B1
B4: GpH7-A5/GpH7-B3 variant I332_03V/GpL16-k0 (antibody, human IgG1, kappa)
heavy 1: not shown
heavy 2: not shown
light: DIVMTQSPLSLPVTPGEPASISCQASESLVHSNRNTYLHWYLQKPGQSPQLLIYKVSNRFSGVPDRFSGSGSGTDFTLKISRVEAEDVGVYYCSQNTHVPPTFGQGTKVEIERTVAAPSVFIFPPSDEQLKSGTASVVCLLNNFYPREAKVQWKVDNALQSGNSQESVTEQDSKDSTYSLSSTLTLSKADYEKHKVYACEVTHQGLSSPVTKSFNRGEC
notes: as for B1
B5: GpH7-A5/GpH7-B3 variant I332_14T/GpL16-k0 (antibody, human IgG1, kappa)
heavy 1: not shown
heavy 2: not shown
light: DIVMTQSPLSLPVTPGEPASISCQASESLVHSNRNTYLHWYLQKPGQSPQLLIYKVSNRFSGVPDRFSGSGSGTDFTLKISRVEAEDVGVYYCSQNTHVPPTFGQGTKVEIERTVAAPSVFIFPPSDEQLKSGTASVVCLLNNFYPREAKVQWKVDNALQSGNSQESVTEQDSKDSTYSLSSTLTLSKADYEKHKVYACEVTHQGLSSPVTKSFNRGEC
notes: as for B1
B6: GpH7-A5/GpH7-B3 variant I332_12R/GpL16-k0 (antibody, human IgG1, kappa)
heavy 1: not shown
heavy 2: not shown
light: DIVMTQSPLSLPVTPGEPASISCQASESLVHSNRNTYLHWYLQKPGQSPQLLIYKVSNRFSGVPDRFSGSGSGTDFTLKISRVEAEDVGVYYCSQNTHVPPTFGQGTKVEIERTVAAPSVFIFPPSDEQLKSGTASVVCLLNNFYPREAKVQWKVDNALQSGNSQESVTEQDSKDSTYSLSSTLTLSKADYEKHKVYACEVTHQGLSSPVTKSFNRGEC
notes: as for B1
B7: GpH7-A5/GpH7-B3 variant I332_13S/GpL16-k0 (antibody, human IgG1, kappa)
heavy 1: not shown
heavy 2: not shown
light: DIVMTQSPLSLPVTPGEPASISCQASESLVHSNRNTYLHWYLQKPGQSPQLLIYKVSNRFSGVPDRFSGSGSGTDFTLKISRVEAEDVGVYYCSQNTHVPPTFGQGTKVEIERTVAAPSVFIFPPSDEQLKSGTASVVCLLNNFYPREAKVQWKVDNALQSGNSQESVTEQDSKDSTYSLSSTLTLSKADYEKHKVYACEVTHQGLSSPVTKSFNRGEC
notes: as for B1
B8: GpH7-A5/GpH7-B3 variant I332_04F/GpL16-k0 (antibody, human IgG1, kappa)
heavy 1: not shown
heavy 2: not shown
light: DIVMTQSPLSLPVTPGEPASISCQASESLVHSNRNTYLHWYLQKPGQSPQLLIYKVSNRFSGVPDRFSGSGSGTDFTLKISRVEAEDVGVYYCSQNTHVPPTFGQGTKVEIERTVAAPSVFIFPPSDEQLKSGTASVVCLLNNFYPREAKVQWKVDNALQSGNSQESVTEQDSKDSTYSLSSTLTLSKADYEKHKVYACEVTHQGLSSPVTKSFNRGEC
notes: as for B1
B9: GpH7-A5/GpH7-B3 variant I332_09D/GpL16-k0 (antibody, human IgG1, kappa)
heavy 1: not shown
heavy 2: not shown
light: DIVMTQSPLSLPVTPGEPASISCQASESLVHSNRNTYLHWYLQKPGQSPQLLIYKVSNRFSGVPDRFSGSGSGTDFTLKISRVEAEDVGVYYCSQNTHVPPTFGQGTKVEIERTVAAPSVFIFPPSDEQLKSGTASVVCLLNNFYPREAKVQWKVDNALQSGNSQESVTEQDSKDSTYSLSSTLTLSKADYEKHKVYACEVTHQGLSSPVTKSFNRGEC
notes: as for B1
B10: GpH7-A5/GpH7-B3 variant I332_02A/GpL16-k0 (antibody, human IgG1, kappa)
heavy 1: not shown
heavy 2: not shown
light: DIVMTQSPLSLPVTPGEPASISCQASESLVHSNRNTYLHWYLQKPGQSPQLLIYKVSNRFSGVPDRFSGSGSGTDFTLKISRVEAEDVGVYYCSQNTHVPPTFGQGTKVEIERTVAAPSVFIFPPSDEQLKSGTASVVCLLNNFYPREAKVQWKVDNALQSGNSQESVTEQDSKDSTYSLSSTLTLSKADYEKHKVYACEVTHQGLSSPVTKSFNRGEC
notes: as for B1
B11: GpH7-A5/GpH7-B3 variant I332_10E/GpL16-k0 (antibody, human IgG1, kappa)
heavy 1: not shown
heavy 2: not shown
light: DIVMTQSPLSLPVTPGEPASISCQASESLVHSNRNTYLHWYLQKPGQSPQLLIYKVSNRFSGVPDRFSGSGSGTDFTLKISRVEAEDVGVYYCSQNTHVPPTFGQGTKVEIERTVAAPSVFIFPPSDEQLKSGTASVVCLLNNFYPREAKVQWKVDNALQSGNSQESVTEQDSKDSTYSLSSTLTLSKADYEKHKVYACEVTHQGLSSPVTKSFNRGEC
notes: as for B1
B12: GpH7-A5/GpH7-B3 variant I332_01G/GpL16-k0 (antibody, human IgG1, kappa)
heavy 1: not shown
heavy 2: not shown
light: DIVMTQSPLSLPVTPGEPASISCQASESLVHSNRNTYLHWYLQKPGQSPQLLIYKVSNRFSGVPDRFSGSGSGTDFTLKISRVEAEDVGVYYCSQNTHVPPTFGQGTKVEIERTVAAPSVFIFPPSDEQLKSGTASVVCLLNNFYPREAKVQWKVDNALQSGNSQESVTEQDSKDSTYSLSSTLTLSKADYEKHKVYACEVTHQGLSSPVTKSFNRGEC
notes: as for B1
B13: GpH7-A5/GpH7-B3 variant I332_06M/GpL16-k0 (antibody, human IgG1, kappa)
heavy 1: not shown
heavy 2: not shown
light: DIVMTQSPLSLPVTPGEPASISCQASESLVHSNRNTYLHWYLQKPGQSPQLLIYKVSNRFSGVPDRFSGSGSGTDFTLKISRVEAEDVGVYYCSQNTHVPPTFGQGTKVEIERTVAAPSVFIFPPSDEQLKSGTASVVCLLNNFYPREAKVQWKVDNALQSGNSQESVTEQDSKDSTYSLSSTLTLSKADYEKHKVYACEVTHQGLSSPVTKSFNRGEC
notes: as for B1

Experiments:
Test in all cases: SPR; % of GpH7-A5/GpH7-B3/GpL16-k0
[1] = molecular target: T4, FcγRIa extracellular domain with C-terminal His tag (human, UniProt P12314 16-292)
T4 construct: extracellular domain; also called 1a; CD64
T4 sequence (P12314 other isoform, or with tags, fused parts or gaps): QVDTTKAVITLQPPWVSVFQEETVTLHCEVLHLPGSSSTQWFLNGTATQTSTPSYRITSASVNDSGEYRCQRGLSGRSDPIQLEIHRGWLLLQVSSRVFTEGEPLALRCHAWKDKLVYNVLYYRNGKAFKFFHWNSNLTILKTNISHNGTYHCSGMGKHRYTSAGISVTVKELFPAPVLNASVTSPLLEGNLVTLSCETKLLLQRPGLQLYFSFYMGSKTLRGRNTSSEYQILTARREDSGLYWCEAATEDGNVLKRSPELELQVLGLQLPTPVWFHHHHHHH

[2] = molecular target: T1, FcγRIIa(R) extracellular domain with …
[3] = molecular target: T2, FcγRIIa(H) extracellular domain with …
[4] = molecular target: T3, FcγRIIb extracellular domain with …
[5] = molecular target: T5, FcγRIIIa extracellular domain with C-terminal His tag (human, UniProt P08637 17-208)
T5 construct: extracellular domain; also called 3a; CD16
T5 sequence (P08637 other isoform, or with tags, fused parts or gaps): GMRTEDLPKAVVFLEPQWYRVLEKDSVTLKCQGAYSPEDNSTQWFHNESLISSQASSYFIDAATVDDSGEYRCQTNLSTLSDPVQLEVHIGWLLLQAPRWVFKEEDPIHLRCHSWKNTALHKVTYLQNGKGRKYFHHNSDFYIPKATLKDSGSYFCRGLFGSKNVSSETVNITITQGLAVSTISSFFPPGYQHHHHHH

Row | Binder | He/Con 1a [1] | He/Con 2aR [2] | He/Con 2aH [3] | He/Con 2b [4] | He/Con 3a [5]
1 | B1 | 93.9% | 132% | 106% | 116% | 104%
2 | B2 | 104% | 91% | 94.9% | 91.3% | 76%
3 | B3 | 99.2% | 80.5% | 69.9% | 83.7% | 56.3%
4 | B4 | 100% | 87% | 108% | 89.5% | 85.2%
5 | B5 | 104% | 104% | 119% | 118% | 110%
6 | B6 | 102% | 73.5% | 104% | 60.9% | 78.1%
7 | B7 | 97.3% | 97.9% | 113% | 109% | 95.6%
8 | B8 | 106% | 104% | 108% | 115% | 89.3%
9 | B9 | 106% | 118% | 122% | 163% | 189%
10 | B10 | 100% | 96.9% | 115% | 114% | 103%
11 | B11 | 109% | 113% | 112% | 158% | 213%
12 | B12 | 102% | 92.2% | 102% | 96.6% | 101%
13 | B13 | 105% | 108% | 114% | 116% | 92.5%
